Data: US20200199241A1 (Chugai, published 2020)
Residue numbers refer to the chain shown, from its start.

B1: IgG1-F649 (antibody)
heavy: QVQLQESGPGLVKPSETLSLTCAVSGHSISHDHAWSWVRQPPGEGLEWIGFISYSGITNYNPSLQGRVTISRDNSKNTLYLQMNSLRAEDTAVYYCARSLARTTAMDYWGEGTLVTVSSASTKGPSVFPLAPSSKSTSGGTAALGCLVKDYFPEPVTVSWNSGALTSGVHTFPAVLQSSGLYSLSSVVTVPSSSLGTQTYICNVNHKPSNTKVDKKVEPKSCDKTHTCPPCPAPELLGGPKVFLFPPKPKDTLYISRTPEVTCVVVDVSHEDPEVKFNWYVDGVEVHEAKTKPREEQYNSTYRVVSVLTVLHQDWLNGKEYKCKVSNKALPAPIEKTISKAKGQPREPQVYTLPPSRDELTKNQVSLTCLVKGFYPSDIAVEWESNGQPENNYKTTPPVLDSDGSFFLYSKLTVDKSRWQQGNVFSCSVMHEALHYHYTQKSLSLSP
light: not shown
notes: EU numbering; copies: 2 + 2
B2: IgG1-F650 (antibody)
heavy: B1 heavy with T258E, E288N
light: not shown
notes: EU numbering; copies: 2 + 2
B3: IgG1-F651 (antibody)
heavy: B1 heavy with E288N, Q313A
light: not shown
notes: EU numbering; copies: 2 + 2
B4: IgG1-F652 (antibody)
heavy: B1 heavy with P240D, K241S, E288N
light: not shown
notes: copies: 2 + 2
B5: IgG1-F654 (antibody)
heavy: B1 heavy with L237K, E288N, V310P
light: not shown
notes: EU numbering; copies: 2 + 2
B6: IgG1-F655 (antibody)
heavy: B1 heavy with L237R, E288N, V310P
light: not shown
notes: EU numbering; copies: 2 + 2
B7: IgG1-F656 (antibody)
heavy: B1 heavy with G239K, E288N, V310P
light: not shown
notes: EU numbering; copies: 2 + 2
B8: IgG1-F657 (antibody)
heavy: B1 heavy with G239R, E288N, V310P
light: not shown
notes: EU numbering; copies: 2 + 2
B9: IgG1-F658 (antibody)
heavy: B1 heavy with P240K, E288N, V310P
light: not shown
notes: EU numbering; copies: 2 + 2
B10: IgG1-F659 (antibody)
heavy: B1 heavy with P240R, E288N, V310P
light: not shown
notes: EU numbering; copies: 2 + 2
B11: IgG1-F660 (antibody)
heavy: B1 heavy with E288N, V310P, P331K
light: not shown
notes: EU numbering; copies: 2 + 2
B12: IgG1-F661 (antibody)
heavy: B1 heavy with E288N, V310P, P331R
light: not shown
notes: EU numbering; copies: 2 + 2
B13: IgG1-F663 (antibody)
heavy: B1 heavy with T309Q, V310P, Q313A
light: not shown
notes: EU numbering; copies: 2 + 2
B14: IgG1-F664 (antibody)
heavy: B1 heavy with K241S, E288A, V310P
light: not shown
notes: EU numbering; copies: 2 + 2
B15: IgG1-F665 (antibody)
heavy: B1 heavy with K241S, E288D, V310P
light: not shown
notes: EU numbering; copies: 2 + 2
B16: IgG1-F666 (antibody)
heavy: B1 heavy with K241S, E288F, V310P
light: not shown
notes: EU numbering; copies: 2 + 2
B17: IgG1-F667 (antibody)
heavy: B1 heavy with K241S, E288G, V310P
light: not shown
notes: EU numbering; copies: 2 + 2
B18: IgG1-F668 (antibody)
heavy: B1 heavy with K241S, E288H, V310P
light: not shown
notes: EU numbering; copies: 2 + 2
B19: IgG1-F669 (antibody)
heavy: B1 heavy with K241S, E288I, V310P
light: not shown
notes: EU numbering; copies: 2 + 2
B20: IgG1-F670 (antibody)
heavy: B1 heavy with K241S, E288K, V310P
light: not shown
notes: EU numbering; copies: 2 + 2
B21: IgG1-F671 (antibody)
heavy: B1 heavy with K241S, E288L, V310P
light: not shown
notes: EU numbering; copies: 2 + 2
B22: IgG1-F672 (antibody)
heavy: B1 heavy with K241S, E288M, V310P
light: not shown
notes: EU numbering; copies: 2 + 2
B23: IgG1-F673 (antibody)
heavy: B1 heavy with K241S, E288P, V310P
light: not shown
notes: EU numbering; copies: 2 + 2
B24: IgG1-F674 (antibody)
heavy: B1 heavy with K241S, E288Q, V310P
light: not shown
notes: EU numbering; copies: 2 + 2
B25: IgG1-F675 (antibody)
heavy: B1 heavy with K241S, E288R, V310P
light: not shown
notes: EU numbering; copies: 2 + 2
B26: IgG1-F676 (antibody)
heavy: B1 heavy with K241S, E288S, V310P
light: not shown
notes: EU numbering; copies: 2 + 2
B27: IgG1-F677 (antibody)
heavy: B1 heavy with K241S, E288T, V310P
light: not shown
notes: EU numbering; copies: 2 + 2
B28: IgG1-F678 (antibody)
heavy: B1 heavy with K241S, E288V, V310P
light: not shown
notes: EU numbering; copies: 2 + 2
B29: IgG1-F679 (antibody)
heavy: B1 heavy with K241S, E288W, V310P
light: not shown
notes: EU numbering; copies: 2 + 2
B30: IgG1-F680 (antibody)
heavy: B1 heavy with K241S, E288Y, V310P
light: not shown
notes: EU numbering; copies: 2 + 2
B31: IgG1-F681 (antibody)
heavy: B1 heavy with K241S, E288N, K290A, V310P
light: not shown
notes: EU numbering; copies: 2 + 2
B32: IgG1-F682 (antibody)
heavy: B1 heavy with K241S, E288N, K290D, V310P
light: not shown
notes: EU numbering; copies: 2 + 2
B33: IgG1-F683 (antibody)
heavy: B1 heavy with K241S, E288N, K290E, V310P
light: not shown
notes: EU numbering; copies: 2 + 2
B34: IgG1-F684 (antibody)
heavy: B1 heavy with K241S, E288N, K290F, V310P
light: not shown
notes: EU numbering; copies: 2 + 2
B35: IgG1-F685 (antibody)
heavy: B1 heavy with K241S, E288N, K290G, V310P
light: not shown
notes: EU numbering; copies: 2 + 2
B36: IgG1-F686 (antibody)
heavy: B1 heavy with K241S, E288N, K290H, V310P
light: not shown
notes: EU numbering; copies: 2 + 2
B37: IgG1-F687 (antibody)
heavy: B1 heavy with K241S, E288N, K290I, V310P
light: not shown
notes: EU numbering; copies: 2 + 2
B38: IgG1-F688 (antibody)
heavy: B1 heavy with K241S, E288N, K290L, V310P
light: not shown
notes: EU numbering; copies: 2 + 2
B39: IgG1-F689 (antibody)
heavy: B1 heavy with K241S, E288N, K290M, V310P
light: not shown
notes: EU numbering; copies: 2 + 2
B40: IgG1-F690 (antibody)
heavy: B1 heavy with K241S, E288N, K290N, V310P
light: not shown
notes: EU numbering; copies: 2 + 2
B41: IgG1-F691 (antibody)
heavy: B1 heavy with K241S, E288N, K290P, V310P
light: not shown
notes: EU numbering; copies: 2 + 2
B42: IgG1-F692 (antibody)
heavy: B1 heavy with K241S, E288N, K290Q, V310P
light: not shown
notes: EU numbering; copies: 2 + 2
B43: IgG1-F693 (antibody)
heavy: B1 heavy with K241S, E288N, K290R, V310P
light: not shown
notes: EU numbering; copies: 2 + 2
B44: IgG1-F694 (antibody)
heavy: B1 heavy with K241S, E288N, K290V, V310P
light: not shown
notes: EU numbering; copies: 2 + 2
B45: IgG1-F695 (antibody)
heavy: B1 heavy with K241S, E288N, K290W, V310P
light: not shown
notes: EU numbering; copies: 2 + 2
B46: IgG1-F696 (antibody)
heavy: B1 heavy with K241S, E288N, K290Y, V310P
light: not shown
notes: EU numbering; copies: 2 + 2
B47: IgG1-F697 (antibody)
heavy: B1 heavy with E288N, V310P, N327G
light: not shown
notes: EU numbering; copies: 2 + 2
B48: IgG1-F698 (antibody)
heavy: B1 heavy with K241S, T309Q, Q313A
light: not shown
notes: EU numbering; copies: 2 + 2
B49: IgG1-F699 (antibody)
heavy: B1 heavy with T309Q, Q313A
light: not shown
notes: EU numbering; copies: 2 + 2
B50: IgG1-F700 (antibody)
heavy: B1 heavy with K241S, E288N, V310P, L330E
light: not shown
notes: EU numbering; copies: 2 + 2
B51: IgG1-F705 (antibody)
heavy: B1 heavy with K241S, V310P, M430I
light: not shown
notes: EU numbering; copies: 2 + 2
B52: IgG1-F706 (antibody)
heavy: B1 heavy with K241S, T309Q, Q313A, M430I
light: not shown
notes: EU numbering; copies: 2 + 2
B53: IgG1-F707 (antibody)
heavy: B1 heavy with K241S, T309Q, V310P, Q313A
light: not shown
notes: EU numbering; copies: 2 + 2
B54: IgG1-F708 (antibody)
heavy: B1 heavy with K241S, T309Q, V310P, Q313A, M430I
light: not shown
notes: EU numbering; copies: 2 + 2
B55: IgG1-F709 (antibody)
heavy: B1 heavy with T309Q, Q313A, M430I
light: not shown
notes: EU numbering; copies: 2 + 2
B56: IgG1-F710 (antibody)
heavy: B1 heavy with P240D, K241S, T309Q, Q313A, M430I
light: not shown
notes: EU numbering; copies: 2 + 2
B57: IgG1-F711 (antibody)
heavy: B1 heavy with E288N, T309Q, Q313A
light: not shown
notes: EU numbering; copies: 2 + 2
B58: IgG1-F712 (antibody)
heavy: B1 heavy with P240D, K241S, E288N, T309Q, Q313A
light: not shown
notes: EU numbering; copies: 2 + 2
B59: IgG1-F713 (antibody)
heavy: B1 heavy with P240D, K241S, T309Q, Q313A
light: not shown
notes: EU numbering; copies: 2 + 2
B60: IgG1-F714 (antibody)
heavy: B1 heavy with P240D, K241S, E288N, N327S
light: not shown
notes: EU numbering; copies: 2 + 2

target: T1, human FcRn (soluble human FcRn complexed with β2-microglobulin) (human, UniProt P61769 21-119, limits assumed); test: SPR, pH 7.0;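 note: antibodies captured on a Protein L sensor chip with human FcRn injected as analyte, KD calculated from fitted association and dissociation rate constants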
T1 construct: also called hFcRn
T1 sequence (chain, as listed by the source limits assumed, chain 1 of 2): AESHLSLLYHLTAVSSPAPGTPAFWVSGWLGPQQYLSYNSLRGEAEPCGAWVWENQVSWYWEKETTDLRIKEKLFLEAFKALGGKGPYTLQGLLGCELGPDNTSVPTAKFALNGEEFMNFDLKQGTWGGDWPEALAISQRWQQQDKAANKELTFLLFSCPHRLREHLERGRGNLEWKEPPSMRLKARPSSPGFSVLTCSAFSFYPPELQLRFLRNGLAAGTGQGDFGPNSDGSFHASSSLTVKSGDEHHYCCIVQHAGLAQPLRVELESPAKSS
T1 sequence (P61769 21-119 limits assumed, chain 2 of 2): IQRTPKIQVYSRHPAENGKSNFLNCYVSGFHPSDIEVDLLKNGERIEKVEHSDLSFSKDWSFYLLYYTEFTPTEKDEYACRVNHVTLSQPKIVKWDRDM

| Binder | Kd |
| --- | --- |
| B1 | 120 nM |
| B2 | 170 nM |
| B3 | 180 nM |
| B4 | 240 nM |
| B5 | 32 nM |
| B6 | 34 nM |
| B7 | 33 nM |
| B8 | 32 nM |
| B9 | 32 nM |
| B10 | 30 nM |
| B11 | 31 nM |
| B12 | 34 nM |
| B13 | 6.4 nM |
| B14 | 39 nM |
| B15 | 20 nM |
| B16 | 21 nM |
| B17 | 30 nM |
| B18 | 40 nM |
| B19 | 35 nM |
| B20 | 210 nM |

| Binder | Kd |
| --- | --- |
| B21 | 22 nM |
| B22 | 24 nM |
| B23 | 23 nM |
| B24 | 32 nM |
| B25 | 51 nM |
| B26 | 32 nM |
| B27 | 47 nM |
| B28 | 33 nM |
| B29 | 17 nM |
| B30 | 15 nM |
| B31 | 49 nM |
| B32 | 82 nM |
| B33 | 50 nM |
| B34 | 51 nM |
| B35 | 53 nM |
| B36 | 46 nM |
| B37 | 49 nM |
| B38 | 28 nM |
| B39 | 41 nM |
| B40 | 100 nM |

| Binder | Kd |
| --- | --- |
| B41 | 320 nM |
| B42 | 39 nM |
| B43 | 36 nM |
| B44 | 47 nM |
| B45 | 40 nM |
| B46 | 44 nM |
| B47 | 31 nM |
| B48 | 22 nM |
| B49 | 23 nM |
| B50 | 52 nM |
| B51 | 7.1 nM |
| B52 | 18 nM |
| B53 | 5.9 nM |
| B54 | 4.1 nM |
| B55 | 20 nM |
| B56 | 15 nM |
| B57 | 65 nM |
| B58 | 60 nM |
| B59 | 20 nM |
| B60 | 230 nM |
